tested on: Escherichia coli TOP10; experiment: shrunken log2 fold change of peptide-encoding DNA abundance (4.5 h post-induction vs induction); higher = less antimicrobial activity (less host growth inhibition); conditions: time post-induction: 4.5 h; library: site-saturation at positions 5, 18, 19, 20
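Note: peptides expressed intracellularly from a pBAD plasmid library in pooled LB shake-flask culture, induced with 0.3% L-arabinose, DNA abundance read by NGS, three biological replicates, DESeq2 with apeglm shrinkage.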

Row | Sequence | shrunken log2 fold change
1 | RRIRNRPPRLPRPRPRPKLSPRP | 0.0328
2 | RRIRDRPPRLPRPRPRPMRFPRP | 0.21
3 | RRIRHRPPRLPRPRPRPMFGPRP | -0.000925
4 | RRIRCRPPRLPRPRPRPTESPRP | 0.101
5 | RRIRFRPPRLPRPRPRPCAYPRP | 2.21
6 | RRIRRRPPRLPRPRPRPFRFPRP | 0.506
7 | RRIRYRPPRLPRPRPRPWYMPRP | -0.838
8 | RRIRQRPPRLPRPRPRPGVEPRP | 0.0735
9 | RRIRPRPPRLPRPRPRPLFRPRP | 0.159
10 | RRIRERPPRLPRPRPRPLIKPRP | -0.12
11 | RRIRMRPPRLPRPRPRPTHMPRP | 0.362
12 | RRIRWRPPRLPRPRPRPGFCPRP | 0.524
13 | RRIRRRPPRLPRPRPRPQHEPRP | 0.343
14 | RRIRHRPPRLPRPRPRPLGRPRP | 0.218
15 | RRIRTRPPRLPRPRPRPPDTPRP | 0.0652
16 | RRIRYRPPRLPRPRPRPEPQPRP | -0.777
17 | RRIRARPPRLPRPRPRPRGDPRP | 3.26
18 | RRIRWRPPRLPRPRPRPHMLPRP | -0.954
19 | RRIRCRPPRLPRPRPRPVNRPRP | -0.0405
20 | RRIRPRPPRLPRPRPRPFNSPRP | -0.764
21 | RRIRTRPPRLPRPRPRPYFYPRP | -0.842
22 | RRIRPRPPRLPRPRPRPESSPRP | 1.89
23 | RRIRTRPPRLPRPRPRPYVIPRP | -1.03
24 | RRIRARPPRLPRPRPRPWLHPRP | 0.144
25 | RRIRWRPPRLPRPRPRPHCTPRP | -0.401

Row | Sequence | shrunken log2 fold change
26 | RRIRSRPPRLPRPRPRPKVWPRP | 0.115
27 | RRIRPRPPRLPRPRPRPKYHPRP | -0.317
28 | RRIRTRPPRLPRPRPRPVISPRP | -0.21
29 | RRIRLRPPRLPRPRPRPFPHPRP | -0.0537
30 | RRIRFRPPRLPRPRPRPVTKPRP | 0.19
31 | RRIRWRPPRLPRPRPRPILYPRP | -0.515
32 | RRIRVRPPRLPRPRPRPNRSPRP | -0.0169
33 | RRIRNRPPRLPRPRPRPSYHPRP | -0.273
34 | RRIRFRPPRLPRPRPRPSGEPRP | -0.135
35 | RRIRVRPPRLPRPRPRPWVWPRP | 0.292
36 | RRIRFRPPRLPRPRPRPNSWPRP | -0.0266
37 | RRIRNRPPRLPRPRPRPVVCPRP | -0.06
38 | RRIRGRPPRLPRPRPRPLMMPRP | 0.647
39 | RRIRFRPPRLPRPRPRPIGRPRP | 0.00988
40 | RRIRERPPRLPRPRPRPACEPRP | -0.112
41 | RRIRMRPPRLPRPRPRPDKVPRP | 0.359
42 | RRIRARPPRLPRPRPRPQWPPRP | 0.366
43 | RRIRIRPPRLPRPRPRPHRKPRP | -0.551
44 | RRIRRRPPRLPRPRPRPCRIPRP | -0.0873
45 | RRIRPRPPRLPRPRPRPIFSPRP | 0.14
46 | RRIRCRPPRLPRPRPRPCMHPRP | -0.0569
47 | RRIRGRPPRLPRPRPRPAHEPRP | 0.0535
48 | RRIRLRPPRLPRPRPRPDPCPRP | -0.0403
49 | RRIRFRPPRLPRPRPRPVTQPRP | -0.244
50 | RRIRLRPPRLPRPRPRPFLTPRP | -0.434

Row | Sequence | shrunken log2 fold change
51 | RRIRIRPPRLPRPRPRPNHAPRP | -0.0782
52 | RRIRSRPPRLPRPRPRPFETPRP | -0.101
53 | RRIRLRPPRLPRPRPRPKRQPRP | 0.045
54 | RRIRIRPPRLPRPRPRPIMCPRP | -0.0373
55 | RRIRTRPPRLPRPRPRPRILPRP | -0.0615
56 | RRIRMRPPRLPRPRPRPGYIPRP | -0.0175
57 | RRIRRRPPRLPRPRPRPTQTPRP | 0.338
58 | RRIRQRPPRLPRPRPRPDNSPRP | -0.0422
59 | RRIRCRPPRLPRPRPRPAEAPRP | 0.12
60 | RRIRPRPPRLPRPRPRPHERPRP | 0.198
61 | RRIRHRPPRLPRPRPRPDHWPRP | -0.0694
62 | RRIRGRPPRLPRPRPRPDCDPRP | 0.841
63 | RRIRDRPPRLPRPRPRPRETPRP | 0.567
64 | RRIRARPPRLPRPRPRPPLFPRP | 0.789
65 | RRIRVRPPRLPRPRPRPHWVPRP | -0.152
66 | RRIRYRPPRLPRPRPRPAWFPRP | -0.0816
67 | RRIRHRPPRLPRPRPRPNCWPRP | 0.612
68 | RRIRDRPPRLPRPRPRPFKEPRP | 0.0108
69 | RRIRQRPPRLPRPRPRPTNGPRP | -0.0973
70 | RRIRYRPPRLPRPRPRPINQPRP | -0.113
71 | RRIRDRPPRLPRPRPRPENGPRP | 0.0234
72 | RRIRGRPPRLPRPRPRPIDDPRP | 0.329
73 | RRIRQRPPRLPRPRPRPTVRPRP | 0.0397
74 | RRIRARPPRLPRPRPRPIHHPRP | -0.302
75 | RRIRFRPPRLPRPRPRPPTMPRP | 0.166

Row | Sequence | shrunken log2 fold change
76 | RRIRQRPPRLPRPRPRPACHPRP | 0.105
77 | RRIRLRPPRLPRPRPRPGNYPRP | 0.0343
78 | RRIRQRPPRLPRPRPRPCIMPRP | -0.748
79 | RRIRYRPPRLPRPRPRPEKAPRP | 0.00447
80 | RRIRWRPPRLPRPRPRPGYFPRP | -0.152
81 | RRIRTRPPRLPRPRPRPLYIPRP | -0.998
82 | RRIRKRPPRLPRPRPRPSHQPRP | -0.146
83 | RRIRERPPRLPRPRPRPMCAPRP | 0.000297
84 | RRIRDRPPRLPRPRPRPICVPRP | -0.109
85 | RRIRLRPPRLPRPRPRPEHCPRP | 0.0119
86 | RRIRWRPPRLPRPRPRPSPHPRP | -0.0688
87 | RRIRQRPPRLPRPRPRPSWMPRP | -0.0569
88 | RRIRHRPPRLPRPRPRPNTHPRP | -0.856
89 | RRIRGRPPRLPRPRPRPIHAPRP | 0.418
90 | RRIRKRPPRLPRPRPRPHCSPRP | 0.063
91 | RRIRSRPPRLPRPRPRPQDMPRP | 0.035
92 | RRIRDRPPRLPRPRPRPVPQPRP | 0.0622
93 | RRIRQRPPRLPRPRPRPGRMPRP | 0.0366
94 | RRIRTRPPRLPRPRPRPQYPPRP | -0.923
95 | RRIRHRPPRLPRPRPRPWRGPRP | 0.115
96 | RRIRIRPPRLPRPRPRPKTLPRP | -0.229
97 | RRIRERPPRLPRPRPRPFFEPRP | -0.0766
98 | RRIRVRPPRLPRPRPRPFHNPRP | -0.0884
99 | RRIRVRPPRLPRPRPRPLWPPRP | 0.176
100 | RRIRQRPPRLPRPRPRPRMHPRP | -0.0115

Row | Sequence | shrunken log2 fold change
101 | RRIRGRPPRLPRPRPRPDDVPRP | 0.966
102 | RRIRWRPPRLPRPRPRPGCGPRP | 0.784
103 | RRIRKRPPRLPRPRPRPIYIPRP | -0.127
104 | RRIRNRPPRLPRPRPRPHTDPRP | -0.373
105 | RRIRNRPPRLPRPRPRPHCAPRP | 0.0341
106 | RRIRRRPPRLPRPRPRPMEEPRP | 0.0408
107 | RRIRDRPPRLPRPRPRPLMFPRP | -0.188
108 | RRIRHRPPRLPRPRPRPNHKPRP | -0.973
109 | RRIRVRPPRLPRPRPRPVNGPRP | 0.158
110 | RRIRPRPPRLPRPRPRPAHWPRP | 0.484
111 | RRIRQRPPRLPRPRPRPGNWPRP | -0.0235
112 | RRIRGRPPRLPRPRPRPATKPRP | 0.649
113 | RRIRFRPPRLPRPRPRPKHPPRP | 0.194
114 | RRIRRRPPRLPRPRPRPSALPRP | 0.392
115 | RRIRHRPPRLPRPRPRPPVTPRP | -0.0642
116 | RRIRSRPPRLPRPRPRPKSNPRP | -0.347
117 | RRIRARPPRLPRPRPRPGRCPRP | 0.745
118 | RRIRARPPRLPRPRPRPKQWPRP | 0.587
119 | RRIRPRPPRLPRPRPRPRWQPRP | 0.754
120 | RRIRNRPPRLPRPRPRPTKGPRP | 0.0423
121 | RRIRKRPPRLPRPRPRPFPNPRP | 0.0546
122 | RRIRVRPPRLPRPRPRPDSQPRP | -0.116
123 | RRIRLRPPRLPRPRPRPCHRPRP | 0.00936
124 | RRIRVRPPRLPRPRPRPQFVPRP | -0.122
125 | RRIRTRPPRLPRPRPRPKWDPRP | -0.0626

Row | Sequence | shrunken log2 fold change
126 | RRIRWRPPRLPRPRPRPALRPRP | 0.243
127 | RRIRGRPPRLPRPRPRPYQCPRP | -0.0235
128 | RRIRMRPPRLPRPRPRPAMHPRP | 2.86
129 | RRIRLRPPRLPRPRPRPPYIPRP | -0.081
130 | RRIRYRPPRLPRPRPRPNKEPRP | -0.0622
131 | RRIRPRPPRLPRPRPRPNYLPRP | -0.0996
132 | RRIRARPPRLPRPRPRPPNLPRP | 0.342
133 | RRIRKRPPRLPRPRPRPWQWPRP | 0.0199
134 | RRIRLRPPRLPRPRPRPVHWPRP | 0.4
135 | RRIRMRPPRLPRPRPRPRGSPRP | 0.631
136 | RRIRIRPPRLPRPRPRPKEAPRP | 0.0518
137 | RRIRMRPPRLPRPRPRPVDWPRP | 1.21
138 | RRIRLRPPRLPRPRPRPRCYPRP | 0.0161
139 | RRIRHRPPRLPRPRPRPFVLPRP | -0.0634
140 | RRIRPRPPRLPRPRPRPSDQPRP | 0.029
141 | RRIRSRPPRLPRPRPRPWAHPRP | -0.186
142 | RRIRQRPPRLPRPRPRPADIPRP | -0.01
143 | RRIRYRPPRLPRPRPRPCYSPRP | -0.00871
144 | RRIRCRPPRLPRPRPRPVMMPRP | -0.214
145 | RRIRQRPPRLPRPRPRPVSNPRP | -0.0478
146 | RRIRYRPPRLPRPRPRPHRDPRP | -0.288
147 | RRIRTRPPRLPRPRPRPCWMPRP | -0.259
148 | RRIRARPPRLPRPRPRPCHAPRP | 0.284
149 | RRIRIRPPRLPRPRPRPNCNPRP | -0.845
150 | RRIRERPPRLPRPRPRPCFIPRP | -0.73

Reference: the supplement of paper PMC9112550, “Optimization of the antimicrobial peptide Bac7 by deep mutational scanning” (BMC Biology, 2022)
